PMC5684335, “ER-associated degradation regulates Alzheimer’s amyloid pathology and memory function by modulating γ-secretase activity” (Nature Communications, 2017)

Biological target: T1, membralin-mCherry (mouse, UniProt Q8CIV2 1-574)
T1 construct: membralin (TMEM259), mouse cDNA from the IMAGE consortium, subcloned into pmCherry-N1; FRET acceptor; also called mCherry-tagged membralin; source: HEK293T, transfected, in living cells
Experiment: FRET or BRET; acceptor photobleaching in HEK293T co-transfected 24 h with target-EGFP (donor) and membralin-mCherry (acceptor); 10 cells, three independent experiments
Conditions: not given

T1 sequence (Q8CIV2 whole entry): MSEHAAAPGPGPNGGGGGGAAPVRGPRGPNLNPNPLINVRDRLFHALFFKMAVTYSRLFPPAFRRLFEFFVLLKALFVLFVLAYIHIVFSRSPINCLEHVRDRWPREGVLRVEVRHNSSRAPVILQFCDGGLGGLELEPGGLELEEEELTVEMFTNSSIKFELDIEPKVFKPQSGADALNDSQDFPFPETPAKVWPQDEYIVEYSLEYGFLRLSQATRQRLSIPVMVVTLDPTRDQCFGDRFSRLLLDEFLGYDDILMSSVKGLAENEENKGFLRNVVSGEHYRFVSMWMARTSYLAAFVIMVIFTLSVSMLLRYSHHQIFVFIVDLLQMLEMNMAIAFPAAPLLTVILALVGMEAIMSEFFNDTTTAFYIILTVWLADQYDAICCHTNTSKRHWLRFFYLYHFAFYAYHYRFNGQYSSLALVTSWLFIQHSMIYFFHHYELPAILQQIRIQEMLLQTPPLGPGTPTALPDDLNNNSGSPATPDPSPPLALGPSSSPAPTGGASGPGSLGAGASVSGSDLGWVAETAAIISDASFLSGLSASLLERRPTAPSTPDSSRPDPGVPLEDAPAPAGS

Row | FRET efficiency [%] | Molecule
1 | 33.9 | FAM8A1-EGFP (from UniProt Q9UBU6 1-413) (natural protein)

Same assay, conditions: partners not purified

Row | Molecule | FRET efficiency [%]
2 | Derlin1-EGFP (natural protein, mouse, UniProt Q99J56 1-251, looked up, Derlin1, mouse cDNA from the IMAGE consortium, subcloned into pEGFP-N1; FRET donor; vector pEGFP-N1; source: HEK293T, transfected, in living cells) MSDIGDWFRSIPAITRYWFAATVAVPLIGKLGIISPAYFFLWPEAFLYRFQIWRPFTATFYFPVGPGTGFLYLVNLYFLYQYSTRLEAGAFDGRPADYLFMLLFNWICIVITGLAMDMQLLMIPLIMSVLYVWAQLNRDLIVSFWFGTRFKACYLPWVILGFNYIIGGSVINELIGNLVGHLYFFLMFRYPMDLGGRNFLSTPQFLYRWLPSRRGGVSGFGVPPASMRRAADQNGGGGRHNWGQGFRLGDQ | 12.3
3 | EMC1-EGFP (natural protein, mouse, UniProt Q8C7X2 24-997, looked up, EMC1, mouse cDNA from the IMAGE consortium, subcloned into pEGFP-N1; FRET donor; vector pEGFP-N1; source: HEK293T, transfected, in living cells) YEDQVGKFDWRQQYVGKIKFASLEFSPGSKKLVVATEKNVIAALNSRTGEILWRHVDKGTAEGAVDAMLVHGQDAITVSNGGRLMRSWETNIGGLNWEITLDTGSFQALGLVGLQESVRYIAVLKKTTLTLHHLSSGHLKWVEHLPESDSILYQMVYSYGSGVVWALGIVPFSHVNIVKFNVEDGEIVQQVRVWTPWLQHLTGACGVVDEAVLVCPDPSSHSLHTLALETEWELRQIPLQSPDLEFGSGFQPQVLPTQPSPVAPSRAQFFLQLSPSHYALLHYHHGAVTLLKNFPQATLVSFATTGEKTVAAVMTCRTEVQKPVSAGDGSVASFPETSGAQDSLACFNQTYTINLYLVETGRRLLDTSISFSLEQKGTRPEQLYIQVFLKKDDSVGYRALVQTQDHLQLFLQQLAGKVVLWSREESLAEVVCLEMVDLPLTGAQAELEGEFGKKAAIQDGLLGMFLKRLSSQLILLQAWTSHLWKMFYDARKPRSQIKNEINIDTLARDEFNLQKMMVTVTASGKLFGIESSSGTILWKQYLPNVKPDSSFKLMVQRTTAHFPHPPQCTLLVKDKETGMSSLFVFNPIFGKWSQVAPPVLKRPILQSLLLPVMDQDYAKVLLLVDDEYKVTAFPATRNVLRQLHELAPSIFFYLVDAEQGRLSGYQLRKDLTTELSWELTIPPEVQRVVKVKGKRSSEHVHSQGRVMGDRSVLYKSLNPNLLAVVTESTDVHHERTFIGIFLIDGVTGRIIHSSVQKKARGPVHLVHSENWVVYQYWNSKARRNELTALELYEGTEQYNATAFSSLDRPQLPQVLQQSYIFPSSISAMEATITERGITSRHLLIGLPSGAILSLPKALLDPRRPEIPTEQSREENLIPYSPDVQVHAERFINYNQTVSRMRGIYTAPSGLESTCLVVAYGLDIYQTRVYPSKQFDVLKDDYDYVLISSVLFGLVFATMITKRLAQVKLLNRAWR | 22.4
4 | EMC3-EGFP (natural protein, mouse, UniProt Q99KI3 1-261, looked up, EMC3, mouse cDNA from the IMAGE consortium, subcloned into pEGFP-N1; FRET donor; vector pEGFP-N1; also called EMC3-GFP; source: HEK293T, transfected, in living cells) MAGPELLLDSNIRLWVVLPIVIITFFVGMIRHYVSILLQSDKKLTQEQVSDSQVLIRSRVLRENGKYIPKQSFLTRKYYFNNPEDGFFKKTKRKVVPPSPMTDPTMLTDMMKGNVTNVLPMILIGGWINMTFSGFVTTKVPFPLTLRFKPMLQQGIELLTLDASWVSSASWYFLNVFGLRSIYSLILGQDNAADQSRMMQEQMTGAAMAMPADTNKAFKTEWEALELTDHQWALDDVEEELMARDLHFEGMFKKELQTSIF | 26.3

More lines, now with the values ahead:

Row | FRET efficiency [%] | Molecule
5 | 21.8 | SYVN1-EGFP (natural protein, mouse, UniProt Q9DBY1 1-612, looked up, SYVN1 (Hrd1), mouse cDNA from the IMAGE consortium, subcloned into pEGFP-N1; FRET donor; vector pEGFP-N1; also called SYVN1-GFP; source: HEK293T, transfected, in living cells) MFRTAVMMAASLALTGAVVAHAYYLKHQFYPTVVYLTKSSPSMAVLYIQAFVLVFLLGKVMGKVFFGQLRAAEMEHLLERSWYAVTETCLAFTVFRDDFSPRFVALFTLLLFLKCFHWLAEDRVDFMERSPNISWLFHCRIVSLMFLLGILDFLFVSHAYHSILTRGASVQLVFGFEYAILMTMVLTIFIKYVLHSVDLQSENPWDNKAVYMLYTELFTGFIKVLLYMAFMTIMIKVHTFPLFAIRPMYLAMRQFKKAVTDAIMSRRAIRNMNTLYPDATPEELQAVDNVCIICREEMVTGAKRLPCNHIFHTSCLRSWFQRQQTCPTCRMDVLRASLPAQSPPPPEPADQGPPPAPHPQPLLPQPPNFPQGLLPPFPPGMFPLWPPMGPFPPVPPPPSSGEAAAPPPTSTAVSRPSGAATTTAAGTSTSAPAPGSVPGPEAGPAPGFPFPPPWMGMPLPPPFAFPPMPVPPAGFAGLTPEELRALEGHERQHLEARLQSLRNIHTLLDAAMLQINQYLTVLASLGPPRPATSVNPTEETASTVVSAAPSTSAPSSEAPTPSPGASPPIPEAEKPPAPESVGIVEELPEDGEPDAAELRRRRLQKLESPVAH
6 | 33.1 | Ubac2-EGFP (natural protein, mouse, UniProt Q8R1K1 40-345, looked up, Ubac2, mouse cDNA from the IMAGE consortium, subcloned into pEGFP-N1; FRET donor; vector pEGFP-N1; source: HEK293T, transfected, in living cells) FFVYDLHAVKHDLQIWRLICGRIICLDLKDAFCSGLLIYNFRIFERRYGSRKFASFLLGSWVLSALFDFILVEAVQYSLGVTVASNLPSGFLAPVFALFVPFHCSIPRVQVAQILGPLSITNKTLIYILGLQLFTSGSYIWIVAMSGLISGMCYDRKVLQVHQVLRIPGRMAEFFSWALEPIFSSSEPTSEARVGMGATVDIQRQQRMEQLDRQLMLSQFAQVRRQRQQQGGMINWNRLFPPLRQRRNINYQDGPRSEQRASPPLEVSEEQVARLMEMGFSRGDALEALRASNNDLNVATNFLLQH
